{"source": "paper doi:10.1101/2022.01.07.475460", "biological_target": "Recombinant Xenopus laevis Chromosomal Passenger Complex (INCENP, Aurora B 33-368, Survivin-B, Borealin/Dasra-A) (Xenopus laevis) (UniProt Q6GPL3)", "sequence (Q6GPL3 whole entry, looked up, tested part not stated, one chain of several)": "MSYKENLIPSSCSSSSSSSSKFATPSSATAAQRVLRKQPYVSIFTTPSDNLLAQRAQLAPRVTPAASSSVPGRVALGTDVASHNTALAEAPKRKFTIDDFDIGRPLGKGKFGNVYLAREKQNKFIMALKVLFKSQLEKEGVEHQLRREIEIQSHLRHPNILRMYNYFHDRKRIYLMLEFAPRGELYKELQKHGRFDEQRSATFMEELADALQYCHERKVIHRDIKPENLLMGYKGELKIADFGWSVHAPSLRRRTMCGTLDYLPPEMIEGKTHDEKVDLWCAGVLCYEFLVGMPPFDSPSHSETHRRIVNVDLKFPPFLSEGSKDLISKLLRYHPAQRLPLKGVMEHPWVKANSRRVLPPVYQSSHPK", "experiment": "partitioning into condensates"}
{"substance": "α/β-tubulin dimers (from UniProt Q6B856 1-445) (complex)", "values": [{"measurement": "enrichment in condensates (partition coefficient)", "value": 5, "unit": "fold"}]}
